Experimental data reported in the supplement of paper PMC7877785.
± gives the uncertainty stated by the source.

Experiment: self-splicing fitness, log relative to wild type (ln ratio); higher = more splicing; Tetrahymena group I intron in knt gene, E. coli kanamycin selection, DiMSum; sequences stand for … in CUCUCU…GGAGGGAAAAGUUAUCAGGCAUGCACCUGGUAGCUAGUCUUUAAACCAAUAGAUUGCAUCGGUUUAAAAGGCAAGACCGUCAAAUUGCGGGAAAGGGGUCAACAGCCGUUCAGUACCAAGUCUCAGGGGAAACUUUGAGAUGGCCUUGCAAAGGGUAUGGUAAUAAGCUGACGGACAUGGUCCUAACCACGCAGCCAAGUCCUAAGUCAACAGAUCUUCUGUUGAUAUGGAUGCAGUUCACAGACUAAAUGUCGGUCGGGGAAGAUGUAUUCUUCUCAUAAGAUAUAGUCGGACCUCUCCUUAAUGGGAGCUAGCGGAUGAAGUGAUGCAACACUGGAGCCGCUGGGAACUAAUUUGUAUGCGAAAGUAUAUUGAUUAGUUUUGGAGUACUCGUGGUCG
How it was run: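 A randomised library covering all eight P1ex-region intron nucleotides was built with the intron in the knt kanamycin-resistance gene on pET-22b(+) and held in E. coli BL21(DE3). Cells were grown overnight at 37°C or 30°C on LB agar, with or without 25 μg/mL kanamycin, plus 100 μg/mL carbenicillin, 50 μM IPTG and 0.2% rhamnose, and pooled colonies were amplicon-sequenced on an Illumina HiSeq 2500. DiMSum fitness is the error-weighted combination of wild-type-normalised replicate fold changes, kanamycin versus none.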

| Sequence | self-splicing fitness (ln) (30 °C) | self-splicing fitness (ln) (37 °C) |
| --- | --- | --- |
| GAGCAGCAAUAUUACGCAGC | -3.7 ± 0.21 | -2.61 ± 0.29 |
| GAGCAGCAAUAUUACGCAUG | -3.03 ± 0.34 | -1.67 ± 0.31 |
| GAGCAGCAAUAUUACGCCGU | -1.39 ± 0.12 | -0.525 ± 0.19 |
| GAGCAGCAAUAUUACGCGGG | -2.52 ± 0.21 | -1.96 ± 0.23 |
| GAGCAGCAAUAUUACGGAUC | -0.51 ± 0.12 | -0.724 ± 0.12 |
| GAGCAGCAAUAUUACGGGAA | -3.18 ± 0.26 | -2.05 ± 0.22 |
| GAGCAGCAAUAUUACGGUAC | -2.73 ± 0.14 | -0.416 ± 0.11 |
| GAGCAGCAAUAUUACGGUCC | -2.93 ± 0.18 | -1.63 ± 0.17 |
| GAGCAGCAAUAUUACGUAAC | -1.36 ± 0.11 | -1.13 ± 0.18 |
| GAGCAGCAAUAUUACGUAAU | -1.59 ± 0.063 | -0.994 ± 0.1 |
| GAGCAGCAAUAUUACGUAUU | -2.62 ± 0.066 | -1.32 ± 0.075 |
| GAGCAGCAAUAUUACGUCCC | -0.684 ± 0.11 | -0.465 ± 0.19 |
| GAGCAGCAAUAUUACGUCUU | -3.01 ± 0.19 | -1.23 ± 0.15 |
| GAGCAGCAAUAUUACGUGAU | -2.21 ± 0.082 | -0.968 ± 0.084 |
| GAGCAGCAAUAUUACGUUCC | -3.51 ± 0.17 | -3.28 ± 0.21 |
| GAGGAGCAAUAUUACGACAC | -0.706 ± 0.35 | -0.696 ± 0.31 |
| GAGGAGCAAUAUUACGACUA | -1.32 ± 0.43 | -1.47 ± 0.37 |
| GAGGAGCAAUAUUACGAGGC | -3.47 ± 0.47 |  |
| GAGGAGCAAUAUUACGGAAU | -3.82 ± 0.37 |  |
| GAGGAGCAAUAUUACGGAGG |  | -2.2 ± 0.24 |
| GAGGAGCAAUAUUACGGGAA | -2.81 ± 0.26 | -1.84 ± 0.46 |
| GAGGAGCAAUAUUACGGGAU | -2.69 ± 0.28 |  |
| GAGGAGCAAUAUUACGGUCU | -3.51 ± 0.48 | -0.511 ± 0.21 |
| GAGGAGCAAUAUUACGUAAA | -3.86 ± 0.17 | -1.32 ± 0.13 |
| GAGGAGCAAUAUUACGUACC | -0.85 ± 0.31 | -0.663 ± 0.27 |

| Sequence | self-splicing fitness (ln) (30 °C) | self-splicing fitness (ln) (37 °C) |
| --- | --- | --- |
| GAGGAGCAAUAUUACGUAGU | -2.29 ± 0.19 | -2.19 ± 0.3 |
| GAGGAGCAAUAUUACGUGAU |  | -2.02 ± 0.27 |
| GAGGAGCAAUAUUACGUGUC | -3.51 ± 0.27 | -1.91 ± 0.2 |
| GAGUAGCAAUAUUACGAAGU | -2.93 ± 0.18 | -2.1 ± 0.15 |
| GAGUAGCAAUAUUACGACCA | -1.81 ± 0.12 | 0.176 ± 0.15 |
| GAGUAGCAAUAUUACGAGCC | -1.67 ± 0.2 | -1.26 ± 0.19 |
| GAGUAGCAAUAUUACGAUUC | -0.85 ± 0.18 | -0.0237 ± 0.24 |
| GAGUAGCAAUAUUACGCAUC | -2.66 ± 0.32 | -2.17 ± 0.28 |
| GAGUAGCAAUAUUACGCGGA | -2.61 ± 0.17 | -2.06 ± 0.17 |
| GAGUAGCAAUAUUACGCUCG | -1.88 ± 0.28 | -0.561 ± 0.29 |
| GAGUAGCAAUAUUACGCUGU | -3.36 ± 0.23 | -1.48 ± 0.22 |
| GAGUAGCAAUAUUACGCUUA | -1.45 ± 0.13 | -0.422 ± 0.12 |
| GAGUAGCAAUAUUACGGAGC | -2.75 ± 0.23 | -1.8 ± 0.27 |
| GAGUAGCAAUAUUACGGAGU | -3.7 ± 0.27 | -3.05 ± 0.19 |
| GAGUAGCAAUAUUACGGAUA | -2.11 ± 0.25 | -2.41 ± 0.25 |
| GAGUAGCAAUAUUACGGCGC | -0.602 ± 0.14 | 0.407 ± 0.19 |
| GAGUAGCAAUAUUACGGGCG | -1.89 ± 0.12 | -0.779 ± 0.12 |
| GAGUAGCAAUAUUACGGGGC | -2.79 ± 0.28 | -1.98 ± 0.33 |
| GAGUAGCAAUAUUACGGGUU | -2.25 ± 0.14 | -1.81 ± 0.2 |
| GAGUAGCAAUAUUACGGUGG | -3.37 ± 0.26 | -2.15 ± 0.18 |
| GAGUAGCAAUAUUACGUAAA |  | -0.672 ± 0.33 |
| GAGUAGCAAUAUUACGUAAC | -2.12 ± 0.1 | -2.95 ± 0.17 |
| GAGUAGCAAUAUUACGUCUU | -1.94 ± 0.16 | -1.49 ± 0.17 |
| GAUAAGCAAUAUUACGAGCG | -1.25 ± 0.1 | -0.755 ± 0.11 |
| GAUAAGCAAUAUUACGAUGC | -0.7 ± 0.11 | -0.45 ± 0.11 |

| Sequence | self-splicing fitness (ln) (30 °C) | self-splicing fitness (ln) (37 °C) |
| --- | --- | --- |
| GAUAAGCAAUAUUACGCAAU | -2.21 ± 0.13 | -0.936 ± 0.16 |
| GAUAAGCAAUAUUACGCAGU | -2.94 ± 0.2 | -1.65 ± 0.24 |
| GAUAAGCAAUAUUACGCCAA | -1.91 ± 0.2 | -2.16 ± 0.22 |
| GAUAAGCAAUAUUACGCCCC | -2.27 ± 0.32 | -1.43 ± 0.33 |
| GAUAAGCAAUAUUACGCCCG | -2.05 ± 0.2 | -0.456 ± 0.24 |
| GAUAAGCAAUAUUACGCCGC |  | -1.99 ± 0.41 |
| GAUAAGCAAUAUUACGCCGG | -1.66 ± 0.2 | -1.06 ± 0.14 |
| GAUAAGCAAUAUUACGCGAC | -1.41 ± 0.14 | -1.54 ± 0.23 |
| GAUAAGCAAUAUUACGCGUG | -0.603 ± 0.072 | -0.471 ± 0.088 |
| GAUAAGCAAUAUUACGCUCU | -2.11 ± 0.18 | -0.116 ± 0.2 |
| GAUAAGCAAUAUUACGGGAA | -2.84 ± 0.25 | -1.99 ± 0.22 |
| GAUAAGCAAUAUUACGGGUA | -1.69 ± 0.14 | -1.37 ± 0.17 |
| GAUAAGCAAUAUUACGGGUC | -3.26 ± 0.14 | -1.81 ± 0.13 |
| GAUAAGCAAUAUUACGGUCU | -2.33 ± 0.12 | -1.46 ± 0.14 |
| GAUAAGCAAUAUUACGGUGA | -1.61 ± 0.093 | -1.1 ± 0.12 |
| GAUAAGCAAUAUUACGGUUA | -0.72 ± 0.12 | 0.108 ± 0.11 |
| GAUAAGCAAUAUUACGUACC | -0.984 ± 0.2 | -0.641 ± 0.21 |
| GAUAAGCAAUAUUACGUCCA | -1.72 ± 0.15 | -0.215 ± 0.17 |
| GAUAAGCAAUAUUACGUGCA | -0.463 ± 0.15 | -1.06 ± 0.18 |
| GAUAAGCAAUAUUACGUGUC | -2.29 ± 0.21 | -2.5 ± 0.31 |
| GAUCAGCAAUAUUACGAAAA | -0.449 ± 0.2 | -0.691 ± 0.23 |
| GAUCAGCAAUAUUACGAAUA | -0.747 ± 0.11 | -0.471 ± 0.15 |
| GAUCAGCAAUAUUACGAAUC | -3.46 ± 0.41 | -2.61 ± 0.39 |
| GAUCAGCAAUAUUACGACCA | -1.08 ± 0.092 | 0.352 ± 0.15 |
| GAUCAGCAAUAUUACGAGAC | -3.07 ± 0.44 | -1.86 ± 0.13 |

| Sequence | self-splicing fitness (ln) (30 °C) | self-splicing fitness (ln) (37 °C) |
| --- | --- | --- |
| GAUCAGCAAUAUUACGAUAA | 0.273 ± 0.069 | 0.106 ± 0.076 |
| GAUCAGCAAUAUUACGCACU | 0.181 ± 0.092 | 0.467 ± 0.1 |
| GAUCAGCAAUAUUACGCCAA | -1.95 ± 0.15 | -0.747 ± 0.12 |
| GAUCAGCAAUAUUACGCCGG | -1.75 ± 0.18 | -1.41 ± 0.21 |
| GAUCAGCAAUAUUACGCUAU | -0.967 ± 0.24 | -0.471 ± 0.15 |
| GAUCAGCAAUAUUACGCUCA | -0.493 ± 0.084 | -0.611 ± 0.1 |
| GAUCAGCAAUAUUACGCUCG | 0.0547 ± 0.089 | -0.0564 ± 0.12 |
| GAUCAGCAAUAUUACGGAAC | -0.655 ± 0.094 | -0.0305 ± 0.12 |
| GAUCAGCAAUAUUACGGAAU | -1.27 ± 0.065 | -0.181 ± 0.087 |
| GAUCAGCAAUAUUACGGAGU | -1.16 ± 0.077 | -0.717 ± 0.11 |
| GAUCAGCAAUAUUACGGCCC | -1.65 ± 0.21 | -0.61 ± 0.2 |
| GAUCAGCAAUAUUACGGGGC | -3.2 ± 0.25 | -2.38 ± 0.22 |
| GAUCAGCAAUAUUACGGGUC | -3.38 ± 0.21 | -3.05 ± 0.25 |
| GAUCAGCAAUAUUACGGUGG | -1.36 ± 0.057 | -0.762 ± 0.073 |
| GAUCAGCAAUAUUACGUAGC | -0.999 ± 0.11 | -0.402 ± 0.12 |
| GAUCAGCAAUAUUACGUCCA | -0.96 ± 0.18 | -0.173 ± 0.17 |
| GAUCAGCAAUAUUACGUGUA | -1.36 ± 0.069 | -0.723 ± 0.082 |
| GAUCAGCAAUAUUACGUUCA | -0.939 ± 0.15 | -0.942 ± 0.18 |
| GAUGAGCAAUAUUACGAAAU | -1.53 ± 0.18 | -1.92 ± 0.37 |
| GAUGAGCAAUAUUACGAAGG | -1.14 ± 0.26 |  |
| GAUGAGCAAUAUUACGAAUC | -3.19 ± 0.41 | -1.89 ± 0.29 |
| GAUGAGCAAUAUUACGACAU | -1.797 ± 0.016 | -1.02 ± 0.034 |
